Patent US20240285785A1, “TARGETING SORTILIN” (priority 2022, published 2024)

What was measured:
[1] = CMC formulation buffer screen (shake flask solubility); assay type: physicochemical; settings: 0.5 mg/mL
Procedure: Exemplary conjugate agents (e.g., sortilin binding agents), referred to in the present Example as “peptide drug conjugates” or “PDCs” were assessed in a formulation screen to determine an appropriate vehicle for in vivo studies and to assess precipitation risk. PDC solutions were made up to 0.5 mg/mL in the following buffers: 25 mM Histidine 10% sucrose pH 7, 50 mM acetate/acetic acid, 10% sucrose pH 5, 1×PBS pH 7.4, Saline, 50 mM HEPES 10% sucrose pH 7. Solubility was assessed using a shake flask method and the test compound concentration of the filtrate was confirmed using HPLC-UV.
The following buffers were screened: 25 mM Histidine 10% sucrose pH 7, 50 mM acetate/acetic acid, 10% sucrose pH 5, 1×PBS pH 7.4, Saline, 50 mM HEPES 10% sucrose pH 7. The PDCs were soluble in all buffers tested (Table 1), and we proceed to use 25 mM Histidine, 10% sucrose pH 7 as our buffer of choice for our in vivo studies.

[2] = Murine hematotoxicity assay; assay type: in vivo, BALB/c mice; settings: 3 mg/kg i.v. QW×4, compared to vehicle or MMAE treatment
Procedure: Murine hematotoxicity experiments were conducted at Charles River Laboratories and the care and use of animals was conducted in accordance with the regulations of the Association for Assessment and Accreditation of Laboratory Animal Care (AAALAC). Wild type BALB/c, female, 7-8 weeks, weighing approximately 18-22 g were randomized and dosed intravenously with control or test articles at a QW×4 schedule. Dosing volume was adjusted based on body weight and was administered at 10 mL/Kg. PDCs were dissolved in 25 mM Histidine 10% sucrose pH 7 and 3 mg/kg was administered. Free MMAE payload was also tested, and similarly dissolved in 25 mM Histidine 10% sucrose pH 7 and administered to the mice at a dose of […] by i.v. injection at a QW×4 schedule. 3 days following each dose, 150 μL of whole blood was collected via submandibular method and placed in K2 EDTA tubes stored on ice. Blood neutrophil counts were performed on the day of collection by IDEXX labs. Body weights were recorded twice a week until study endpoint.
As outlined in the material and methods of Example 1, wild type BALB/c, female, 7-8 weeks, weighing approximately 18-22 g were randomized and dosed intravenously with control or test articles at a QW×4 schedule. Dosing volume was adjusted based on body weight and was administered at 10 ml/Kg. […] Free MMAE payload was also tested, and similarly dissolved in 25 mM Histidine 10% sucrose pH 7 and administered to the mice at a dose of […] by i.v. injection at a QW×4 schedule. 3 days following each dose, 150 μL of whole blood was collected via submandibular method and placed in K2 EDTA tubes stored on ice. Blood neutrophil counts were performed on the day of collection by IDEXX labs. Body weights were recorded twice a week until study endpoint.

Question: For `CC[C@H](C)[C@@H]([C@@H](CC(=O)N1CCC[C@H]1[C@H](OC)[C@@H](C)C(=O)N[C@H](C)[C@@H](O)c1ccccc1)OC)N(C)C(=O)[C@@H](NC(=O)[C@H](C(C)C)N(C)C(=O)OCc1ccc(NC(=O)[C@H](CCCNC(N)=O)NC(=O)[C@@H](NC(=O)CCCC(=O)NCCC(=O)N(C)CC(=O)N(C)CC(=O)N(C)CC(=O)N(C)CC(=O)N[C@@H](C)C(=O)N2CCC[C@H]2C(=O)N[C@@H](CCCNC(=N)N)C(=O)N[C@@H](Cc2c[nH]c3ccccc23)C(=O)N[C@@H](CC(=O)O)C(=O)N[C@@H](C)C(=O)N2CCC[C@H]2C(=O)N[C@@H](CC(C)C)C(=O)N[C@@H](CCCNC(=N)N)C(=O)N[C@@H](CC(=O)O)C(=O)N2CCC[C@H]2C(=O)N[C@@H](C)C(=O)N[C@@H](CC(C)C)C(=O)N[C@@H](CCCNC(=N)N)C(=O)N[C@@H](CCC(N)=O)C(=O)N[C@@H](CC(C)C)C(=O)N[C@@H](CC(C)C)C(=O)O)C(C)C)cc1)C(C)C` [PRGN_WT_PDC], which formulation screen result ([1]; 25 mM Histidine 10% sucrose pH 7) is on record?
Answer: The formulation screen result was “clear solution”.

Question: What about the formulation screen result ([1]; 50 mM HEPES 10% sucrose pH 7) of the same compound?
Answer: The formulation screen result was “clear solution”.

Question: And the formulation screen result ([1]; 50 mM acetate/acetic acid, 10% sucrose pH 5)?
Answer: Its formulation screen result is “clear solution”.

Question: And the formulation screen result ([1]; 1x PBS pH 7.4)?
Answer: The formulation screen result was “clear solution”.

Question: What about the formulation screen result ([1]; Saline) of the same compound?
Answer: Its formulation screen result is “clear solution”.

Question: And the blood neutrophil counts [2]?
Answer: The blood neutrophil counts was “reduced neutrophil counts”.
